Results: the DeepSol protein solubility set

Experiment: soluble on expression in E. coli; label from the status in PepcDB or PDB records

| Sequence | soluble on expression in E. coli |
| --- | --- |
| MDMNFDLYMNGVVEQARNEIESAGYEQLTTAEDVDKVLKQDGTTLVMINSVCGCAGGIARPAASHALHYDVLPDRLVTVFAGQDKEATQRAREYFEGYAPSSPSFALVKDGKITEMIERHQIEGHDVMNVINQLQTLFNKYCEERLEHHHHHH | soluble |
| MHHHHHHSSGVDLGTENLYFQSMATGQKLMRAVRVFEFGGPEVLKLRSDIAVPIPKDHQVLIKVHACGVNPVETYIRSGTYSRKPLLPYTPGSDVAGVIEAVGDNASAFKKGDRVFTSSTISGGYAEYALAADHTVYKLPEKLDFKQGAAIGIPYFTAYRALIHSACVKAGESVLVHGASGGVGLAACQIARAYGLKILGTAGTEEGQKIVLQNGAHEVFNHREVNYIDKIKKYVGEKGIDIIIEMLANVNLSKDLSLLSHGGRVIVVGSRGTIEINPRDTMAKESSIIGVTLFSSTKEEFQQYAAALQAGMEIGWLKPVIGSQYPLEKVAEAHENIIHGSGATGKMILLL | soluble |
| QIKSQGCRISRTFLLICSRGRKQRMKDSENKGASSPDMEPSYGGGLFDMVKGGAGRLFSNLKDNLKDTLKDTSSRVIQSVTSYTKGDLDFTYVTSRIIVMSFPLDNVDIGFRNQVDDIRSFLDSRHLDHYTVYNLSPKSYRTAKFHSRVSECSWPIRQAPSLHNLFAVCRNMYNWLLQNPKNVCVVHCLDGRAASSILVGAMFIFCNLYSTPGPAIRLLYAKRPGIGLSPSHRRYLGYMCDLLADKPYRPHFKPLTIKSITVSPIPFFNKQRNGCRPYCDVLIGETKIYSTCTDFERMKEYRVQDGKIFIPLNITVQGDVVVSMYHLRSTIGSRLQAKVTNTQIFQLQFHTGFIPLDTTVLKFTKPELDACDVPEKYPQLFQVTLDVELQPHDKVIDLTPPWEHYCTKDVNPSILFSSHQEHQDTLALGGQAPIDIPPDNPRHYGQSGFFASLCWQDQKSEKSFCEEDHAALVNQESEQSDDELLTLSSPHGNANGDKPHGVKKPSKKQQEPAAPPPPEDVDLLGLEGSAMSNSFSPPAAPPTNSELLSDLFGGGGAAGPTQAGQSGVEDVFHPSGPASTQSTPRRSATSTSASPTLRVGEGATFDPFGAPSKPSGQDLLGSFLNTSSASSDPFLQPTRSPSPTVHASSTPAVNIQPDVSGGWDWHAKPGGFGMGSKSAATSPTGSSHGTPTHQSKPQTLDPFADLGTLGSSSFASKPTTPTGLGGGFPPLSSPQKASPQPMGGGWQQGGAYNWQQPQPKPQPSMPHSSPQNRPNYNVSFSAMPGGQNERGKGSSNLEGKQKAADFEDLLSGQGFNAHKDKKGPRTIAEMRKEEMAKEMDPEKLKILEWIEGKERNIRALLSTMHTVLWAGETKWKPVGMADLVTPEQVKKVYRKAVLVVHPDKATGQPYEQYAKMIFMELNDAWSEFENQGQKPLY | soluble |
| MGSDKIHHHHHHMNIEGNIAIICITENGKKLALKINSLVNNCVIYQVKNKKSNLVVEETCVHTVQKKLSDFVGEIFSKFDYIVFIMATGIVVRSIAPYIISKFSDPAILVMDEKGKNVISLLSGHIGGANSLTQYISSLIDANPVITTATDINQKASLDMIAKKLNAHIDNFRESVKEVNSMLVNNKCVGLYVDEGYQVDTRGFKLIESKDELRDSFSNTYIEKLVVVSNKINCIEDIENLNLDNKFEHCYSTQKIIKVIPRDIVIGIGCRRNTDSELMYNSLEEFLNKQNIDIRAINTVGSIELKKDEKAIIELSKILKVPFKTFSVDEISKVDNLFDKSDFVKKNVGVYSVAEPVAYLLSKGNLLVEKHKYKGITFSVGRIKI | not soluble |
| MLEEELARKIERYFSIEEEALKKIRISPAEGSFLRKIAEDNMQMILSYYSDAKHFYAKGDLINAFAALNYSYGWIDAGVRLGIFDGAGDHRLFTLYE | not soluble |
| MLILDYTKLKVTFMTMHHPNLQQHDRPQAISRSYLDIRHVVKQFGSFTALKEISLSIEKGEFVCFLGPSGCGKTTLLRAIAGLDLPTSGTIHQNQQAITFLPPEQRDFGIVFQSYALFPNLTVEENIAIGLRNQGMSVRDALEKVEQWLEMIGLATSAQKYPSQLSGGQQQRVALARALALSPGLLLLDEPLSALDAKVRTHLREEICQLQRKLGITTIMVTHDQEEALTMADRIVVMNHGVIEQVGTPQEIYQKPASRFVAEFVGTMNFIPVSMASSQQLRIAESLIALPKIENYTPCQGEQFDLAVRPENLELVTRYNEAIPVVIRHLEFLGAFYRVECVFQGERLAPPVYVDLPITQVQTMNLKAGDVRYLALRAGQLRAYRRKVMSTTPAATASCAYAA | not soluble |
| MAHHHHHHMERTNLGHGAVGSLAQLCDELRKSYAAAKEIEQRDTTLTKSETANTLKETSNLFALGMEKLISSDGNVVEVKDAIALAEDAEREVAALRAEKARLQSTEDGHRSKLSATGSDAEVEAFVAYAKELSELHDHLFLARVVFKGVLTKRLEDIRDDRLSQQDKRFTDPKSWDVKKGVLERMLQSLRTKTAQLQLSAKTYLDEDEALFLEVMNLATEAGDHVRRGDAMREARDEKLKVFYAECAKLTGWCRQQLTNLEAMQEPDHVQEYCATLADNYPTMSNNFAVLFNSVQEYVQASLIPVHKALLEAEEVWLYLQVSTLERLSKTLFEIHPQSPLDVEVEKYSSYPEHAAKFLQDLERYLAAQHRQQDEVAELDSVHKECQEVLHTLSGQFAELPSEVHAFAQRAQALRAGYQCFREALLQRLTYVSPAASTVVESKRRQEEFENCVRELKSWAAEASHGESWRDIYSKIVEIKQMIKSEQASLEMKRERAVASGQSR | not soluble |
| MKIKWLGHACFLLTSDNGIRVVTDPYDNTVGYKVEKIDAEIVSTSHDHYDHNYVDMVSENAKHVKSEGKTNIDGIEITGVTSFHDDCKGAKRGKNVIFKFKIDGIDVCHLGDLGHVLSDSQVREIGNVDVLLVPVGGVYTIDYKGAVEVMKLVNPKITIPMHYKTPALSFDVDGVENFLSATGGKHIGKQEIELKKDEIENWPKVVALDYQ | soluble |
| MGSDKIHHHHHHMVRLNEIKMQDGKIFLITGANSGLGYETSKFLLERGATVIMCCRDLLKGEKAKKELLKFKFSGKIELVELDLSDLINVKKFAESIKNTFDHLDVLINNAGIMAPPKTLSKQGFEIQFAVNHLAHMFLTLELLPMLEEKNNSRVVTVTSGVQYFGKIQWEDLQGNLKYDRWASYAQSKLANVMFGLELDSKLKETNSKTSSLLAHPGFARTNLQPKSVEANQSWQEELAYKLMDPMFQSAKMGALPQITAATLTSASGGEQYGPRFNFRGFPKICRNAPKALNQTSRKKLWDISEKLIKDFDTLSKQSK | not soluble |
| MPSRVPKSIFYNQVGYLISGDKRFWIQAHEPQPFALRTPEGQAVFAGMTKPVGGNWYVGDFTALRVPGTYTLTVGTLEARVVIHRRAYRDVLEAMLRFFDYQLCGVVLPEDEAGPWAHGACHTSDAKVFGTERALACPGGWHDAGDYGKYTVPAAKAVADLLLAHEYFPAALAHVRPMRSVHRAPHLPPALEVAREEIAWLLTMQDPATGGVYHKVTTPSFPPLDTRPEDDDAPLVLSPISYAATATFCAAMAHAALVYRPFDPALSSCCADAARRAYAWLGAHEMQPFHNPDGILTGEYGDAELRDELLWASCALLRMTGDSAWARVCEPLLDLDLPWELGWADVALYGVMDYLRTPRAAVSDDVRNKVKSRLLRELDALAAMAESHPFGIPMRDDDFIWGSNMVLLNRAMAFLLAEGVGVLHPAAHTVAQRAADYLFGANPLGQCYVTGFGQRPVRHPHHRPSVADDVDHPVPGMVVGGPNRHLQDEIARAQLAGRPAMEAYIDHQDSYSTNEVAVYWNSPAVFVIAALLEARGR | soluble |
| MPFVRPLVTVVRAGRHSYSAGLQLQQRLARSNQILNPPAEFRNYLVLQEHDPVYTVGLRTKDYTAQDEDRLRRLGADFHRTDRGGLITFHGPGQLVAYPILHLGQFVPSIRWYVATLERMVVEACHQMGISSAKATKDTGIWVGDNKICAIGIHGSRYVTTHGIGLNCCTDLQWFEHIVPCGIEGKGVTSLSKELDRHFPVEEASGALLNSFAKVFECRLQEHAKKPASSAEIG | not soluble |
| MVRIALEGELFKGVTSLLDQADRTAGAEIFSALYELNDPRGLEVRLQAHDHGDPKIRNVVLGNERGKKNGVEVDDADSDNRHNLHAAGVNVTDRILPDGSIPHNKFMVLEENGKPTKVLTGSTNWTSTGLATQTNNTLIIKSPLVAARYKEYWTSVKHFSELGADAPKKLQDPLEHHHHHH | not soluble |
| MGSDKIHHHHHHAAEGNDKKQDLIVKTTQAVPVSHQGDKEFSFIARPFRTSELSFRVGGPIDRFDVYAGNRYQQGSIIAEIDPRDFRIRKERAEAIYHQAKAEFERIQKLYGKGNVSASTYEKAKADYITAKTTFNTASYELEDTHLIAPFNGYVGEVYIEKFQDVKATQPIISFIDIDQLKLEIYVTQDIARAVQALDTIQVRFDAQPDKVYNAKIMEISKGTTRNNLSYLLTALLPNKEGKLLAGMSGKASLNAPSVSTLSQGAAIPQTALCHRPTEGDYLWVVNSKTQQVTKRKVKKGDLLPNGYVSITEGLYPDETVANSGLRFLSDGMKISVENE | not soluble |
| MSLTKKELRKEQTNRFIESTIITTDLLLSSYLYDSTKMEEFLSFIANLDNKYSFINMYLVRTQFPGASIVKSYSSWKKENIQVRKNEKGISIFRPKVIEYVVYNNTKVTKDKWTNEIKELVKNNELEVYTYTKGFTLAKVFDISQTTLPKAQYPKQYFSYFIKEDNENINPNTKLLSLLCNFIAKHNIGITYATMGLSTSEQRFYDKNSHGIKHWIRLNDKNSITQNIYSLVKEYAHTLLGHDISAINNIENRYQAQLVAYAICKSFRLKGIELSSFDAFRSWVNTSTKEMRKKWINSVIFASKQFANDFNYFLDEIEINVDKANLRETASINELMGREGHHHHHH | soluble |
| MKDVTPARADYPWDGERDVIVIGSGCAGLSAALLAAKKSLDVVLCEKSSQVGGTTASAGGVMWIPNSREARAAGVDDSSEQVRVYLRALMGAYYRADLVDPYLKSAPLAAQAIQEDTQVRLKLMPAMSDYHASLPGGKAGGRSLEPERFDGRRLGADFELVRAPIKRLMLLGGLYIDKRRIDEFLNPFGSFRNFIGVIRTLARYAIDRTRFSRGTDIGAGNAFVASALLSLRERGVPIWLNSPMVSLVRNPQGGVAGVAICRDGKLQRIRARKGVILAAGGFPRNAALLEELAGGFPHDQSVGYEGNVGDTLQAARQAGAAIDADLASPCWWTPTSRNKEADGSMSTVLYGYLDRSRPGMIAVNAAGKRFVNDSDSYHDIVYAMFKDGVTPDSRFYLICDRRFVWKRGLGNLIKPYCLSLGRYVRSGYISTGRSIRELAAAIGIDPDALEVTVTRHNGFCETGVDLDFGKGGNPYNRMFGDPRVKPNPNLLAIRHAPFFALRIYPGTLGTILGLKATADAQVVGQDGEAIPGLYACGNDMSSVFRGFYPGAGATLGPGLVFAYRAIEHLARSSGGSAAQSALEHHHHHH | not soluble |
| KTFEPTNPFFRVVLRPSYLYRGCIMYLPSGFAEKYLSGISGFIKVQLAEKQWPVRCLYKAGRAKFSQGWYEFTLENNLGEGDVCVFELLRTRDFVLKVTAFRVNEYV | not soluble |
| MGSDKIHHHHHHMPEQNSFPPEVDHTRPNPARIYDYGLGGHHNFAADRDQFEKLLEVDPDARLVVSANRAFLRRAVRYCLRQGITQFLDLGSGIPTVGNVHEAAHQLNPRARVVYVDNEPIAVAHTRRLLRENENAEIVQADLRDPDAILGAPETQRLLDLSKPVGLMMVAVLHWVPSADVAGLLSRYREVLAPGSYLAISHLTSEHLPEQMGEVEDVFAETTEPVVYRPRSEAVKLFEGFELVPPGVVYTSQWQSEPYEMVEPPERTKIWAAVGRKL | not soluble |
| MEDFGRQRPYGDGGMQIQPYHGNQGGDFRSYSASYGTRENNIYDVKKEKSIARSKSWGITDPELQRKKRVASYKMYGVEGKVKGSFRNSFRWLKQRYTQVVYGWW | not soluble |
